Data taken from patent US20240270821A1, “GIP/GLP1/GCG TRI-RECEPTOR AGONISTS AND USES THEREOF” (priority 2023, published 2024).
Changes are numbered by the printed parent chain. Starred links: 1 amine or outer side, 2 acyl side, 3 side chain; linkers in the order of their positions; H or OH if unused. Non-standard residues stand in square brackets, D forms with d. Groups on a side chain read outwards from the residue. No end group written: not given here. *: point of attachment. C20 diacid = O=C(O)CCCCCCCCCCCCCCCCCCC(=O)*; γGlu = O=C(O)[C@H](CCC(=O)[*:2])N[*:1]; αMeL = CC(C)C[C@](C)(N)C(=O)O; AEEA = NCCOCCOCC(=O)O; Aib = CC(C)(N)C(=O)O

T1: human GIP receptor (human) (UniProt P48546)
T1 sequence (looked up): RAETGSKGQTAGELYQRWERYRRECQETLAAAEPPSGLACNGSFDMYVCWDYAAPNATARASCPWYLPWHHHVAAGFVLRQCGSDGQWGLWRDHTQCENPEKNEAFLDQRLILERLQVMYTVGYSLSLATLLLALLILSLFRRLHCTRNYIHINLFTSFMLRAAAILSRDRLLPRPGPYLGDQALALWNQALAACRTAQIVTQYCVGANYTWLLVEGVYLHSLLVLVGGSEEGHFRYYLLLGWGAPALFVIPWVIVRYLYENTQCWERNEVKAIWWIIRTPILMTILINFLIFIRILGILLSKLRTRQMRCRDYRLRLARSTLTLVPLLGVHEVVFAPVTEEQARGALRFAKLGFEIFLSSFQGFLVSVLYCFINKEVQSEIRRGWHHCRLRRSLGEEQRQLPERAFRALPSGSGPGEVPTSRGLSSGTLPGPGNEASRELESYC

B1: Example 87 (peptide)
chain: YXQGTFTSDFSXXLDKKAQXAFIEYLLAGGPSSGAPPPSGT
modifications: synthetic construct; SITE 2: note = 2-Aminoisobutyric Acid; SITE 12: note = L-ornithine; SITE 13: note = alpha-methyl-leucine; SITE 17: note = Lysine is chemically modified through conjugation of the epsilon-amino group of the Lysine side chain with (2-[2-(2-Amino-ethoxy)-ethoxy]-acetyl)-(gamma-Glu)
B2: Example 94 (peptide)
chain: B1 chain with A35E, T41S
modifications: synthetic construct; SITE 2: note = 2-Aminoisobutyric Acid; SITE 12: note = L-ornithine; SITE 13: note = alpha-methyl-leucine; SITE 17: note = Lysine is chemically modified through conjugation of the epsilon-amino group of the Lysine side chain with (2-[2-(2-Amino-ethoxy)-ethoxy]-acetyl)-(gamma-Glu)
B3: Example 17 (peptide)
chain: B1 chain with X12K, A28E, S39G, G40E, T41G
modifications: Aib, αMeL, acylated Lys, C-terminal amide; synthetic construct; SITE 2: note = 2-Aminoisobutyric Acid; SITE 13: note = alpha-methyl-leucine; SITE 17: note = Lysine is chemically modified through conjugation of the epsilon-amino group of the Lysine side chain with (2-[2-(2-Amino-ethoxy)-ethoxy]-acetyl)2-(gamma-Glu)-CO-(CH2 )18-CO2H; SITE 20:
B4: Example 11 (peptide)
chain: B1 chain with X12K, T41E
modifications: Aib, αMeL; acylated Lys; C-terminal amide; synthetic construct; SITE 2: note = 2-Aminoisobutyric Acid; SITE 13: note = alpha-methyl-leucine; SITE 17: note = Lysine is chemically modified through conjugation of the epsilon-amino group of the Lysine side chain with (2-[2-(2-Amino-ethoxy)-ethoxy]-acetyl)-(gamma-Glu)-CO-(CH2) 18-CO2H; SITE 20: n
B5: Example 15 (peptide)
chain: B1 chain with X12K, S39G, T41E
modifications: acylated Lys, Aib, αMeL, C-terminal amide; synthetic construct; SITE 2: note = 2-Aminoisobutyric Acid; SITE 13: note = alpha-methyl-leucine; SITE 17: note = Lysine is chemically modified through conjugation of the epsilon-amino group of the Lysine side chain with (2-[2-(2-Amino-ethoxy)-ethoxy]-acetyl)-(gamma-Glu)-CO-(CH2) 18-CO2H; SITE 20: n
B6: Example 22 (peptide)
chain: B1 chain with X12K, A35E, G40E, T41G
modifications: Aib, αMeL; acyl on Lys; C-terminal amide; synthetic construct; SITE 2: note = 2-Aminoisobutyric Acid; SITE 13: note = alpha-methyl-leucine; SITE 17: note = Lysine is chemically modified through conjugation of the epsilon-amino group of the Lysine side chain with (2-[2-(2-Amino-ethoxy)-ethoxy]-acetyl)-(gamma-Glu)-CO-(CH2) 16-CO2H; SITE 20: n
B7: Example 98 (peptide)
chain: B1 chain with A35E, S39E, T41E
modifications: synthetic construct; SITE 2: note = 2-Aminoisobutyric Acid; SITE 12: note = L-ornithine; SITE 13: note = alpha-methyl-leucine; SITE 17: note = Lysine is chemically modified through conjugation of the epsilon-amino group of the Lysine side chain with (2-[2-(2-Amino-ethoxy)-ethoxy]-acetyl)-(gamma-Glu)
B8: Example 21 (peptide)
chain: B1 chain with X12K, Y25W, A35E, T41E
modifications: Aib, αMeL; acylated Lys; C-term amide; synthetic construct; SITE 2: note = 2-Aminoisobutyric Acid; SITE 13: note = alpha-methyl-leucine; SITE 17: note = Lysine is chemically modified through conjugation of the epsilon-amino group of the Lysine side chain with (2-[2-(2-Amino-ethoxy)-ethoxy]-acetyl)-(gamma-Glu)-CO-(CH2) 18-CO2H; SITE 20: n
B9: Example 24 (peptide)
chain: B1 chain with X12K, G30A, G40E, T41G
modifications: Aib, αMeL; acylated lysine; C-terminal amide; synthetic construct; SITE 2: note = 2-Aminoisobutyric Acid; SITE 13: note = alpha-methyl-leucine; SITE 17: note = Lysine is chemically modified through conjugation of the epsilon-amino group of the Lysine side chain with (2-[2-(2-Amino-ethoxy)-ethoxy]-acetyl)-(gamma-Glu)-CO-(CH2) 18-CO2H; SITE 20: n
B10: Example 13 (peptide)
chain: B1 chain with X12K, G40S, T41G
modifications: Aib, αMeL, acylated K, C-terminal amide; synthetic construct; SITE 2: note = 2-Aminoisobutyric Acid; SITE 13: note = alpha-methyl-leucine; SITE 17: note = Lysine is chemically modified through conjugation of the epsilon-amino group of the Lysine side chain with (2-[2-(2-Amino-ethoxy)-ethoxy]-acetyl)-(gamma-Glu)-CO-(CH2) 18-CO2H; SITE 20: n

The binders below were run against T1, human GIP receptor (human) (assay: cell-based or functional assay).

Row | Binder | Relative cAMP EC50 [nM] | cAMP Rel EC50 (in the presence of 1% HSA) [nM] | cAMP Rel EC50, nM (in the presence of 1% HSA) [nM]
1 | Y[Aib]QGTFTSDFSK[αMeL]LDKK([AEEA-γGlu-C20 diacid])AQQAFIEYLLA[Aib]GPSSGEPPPSEG-NH2 [Example 19] | 0.228 | 66.2 | 
2 | B1 | 0.128 |  | 12.8
3 | B2 | 0.154 |  | 21.4
4 | B3 | 0.317 | 91.7 | 
5 | B4 | 0.233 | 40.8 | 
6 | B5 | 0.201 | 36.3 | 
7 | B6 | 0.246 | 81 | 
8 | B7 | 0.179 |  | 33.8
9 | B8 | 0.218 | 29.1 | 
10 | B9 | 0.308 | 102 | 
11 | B10 | 0.196 | 29.2 | 

Each binder was assayed against hGLP-1R (Homo sapiens, UniProt P43220) (assay: cell-based or functional assay).
Sequence of hGLP-1R (P43220 24-463): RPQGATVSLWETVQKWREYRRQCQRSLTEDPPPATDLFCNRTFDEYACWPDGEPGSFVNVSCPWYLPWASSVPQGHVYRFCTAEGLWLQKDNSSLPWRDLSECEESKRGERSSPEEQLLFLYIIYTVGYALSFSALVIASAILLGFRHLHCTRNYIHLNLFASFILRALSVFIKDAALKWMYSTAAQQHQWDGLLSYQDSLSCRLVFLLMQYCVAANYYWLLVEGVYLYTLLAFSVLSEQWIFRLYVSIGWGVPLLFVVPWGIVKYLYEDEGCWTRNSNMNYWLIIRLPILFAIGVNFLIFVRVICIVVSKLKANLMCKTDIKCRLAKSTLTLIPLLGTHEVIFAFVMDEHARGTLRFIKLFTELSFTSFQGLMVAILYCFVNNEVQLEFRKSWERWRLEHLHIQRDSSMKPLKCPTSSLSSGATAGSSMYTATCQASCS

Row | Binder | Relative cAMP EC50 [nM] | cAMP Rel EC50 (in the presence of 1% HSA) [nM] | cAMP Rel EC50, nM (in the presence of 1% HSA) [nM]
12 | Y[Aib]QGTFTSDFSK[αMeL]LDKK([AEEA-γGlu-C20 diacid])AQQAFIEYLLA[Aib]GPSSGEPPPSEG-NH2 [Example 19] | 3.96 | 1310 | 
13 | B1 | 2.75 |  | 290
14 | B2 | 2.63 |  | 480
15 | B3 | 2.96 | 543 | 
16 | B4 | 2.07 | 337 | 
17 | B5 | 1.77 | 276 | 
18 | B6 | 2.94 | 592 | 
19 | B7 | 4.35 |  | 660
20 | B8 | 2.7 | 324 | 
21 | B9 | 3.09 | 447 | 
22 | B10 | 1.78 | 282 | 

What follows are binders tested against human GLP1-R (SNAP-GLP-1R expressed in HEK293 cells) (human) (UniProt P43220) (assay: cell-based or functional assay).
Sequence of human GLP1-R (SNAP-GLP-1R expressed in HEK293 cells) (human) (P43220 24-463): as above

Row | Binder | GLP1R Internalization EC50 [nM] | Internalization % TOP [%]
23 | Y[Aib]QGTFTSDFSK[αMeL]LDKK([AEEA-γGlu-C20 diacid])AQQAFIEYLLA[Aib]GPSSGEPPPSEG-NH2 [Example 19] | 52.4 | 72.6
24 | B1 | 61.8 | 45.4
25 | B2 | 37.1 | 47.2
26 | B3 | 66.2 | 72.2
27 | B4 | 75.1 | 73.8
28 | B5 | 79 | 74.9
29 | B6 | 41.9 | 64.7
30 | B7 | 56 | 49.3
31 | B8 | 87.6 | 72.5
32 | B9 | 79.9 | 71.9
33 | B10 | 53.3 | 74.7

These binders were tested against human glucagon receptor (human) (UniProt P47871) (assay: cell-based or functional assay).
Sequence of human glucagon receptor (human) (P47871 26-477): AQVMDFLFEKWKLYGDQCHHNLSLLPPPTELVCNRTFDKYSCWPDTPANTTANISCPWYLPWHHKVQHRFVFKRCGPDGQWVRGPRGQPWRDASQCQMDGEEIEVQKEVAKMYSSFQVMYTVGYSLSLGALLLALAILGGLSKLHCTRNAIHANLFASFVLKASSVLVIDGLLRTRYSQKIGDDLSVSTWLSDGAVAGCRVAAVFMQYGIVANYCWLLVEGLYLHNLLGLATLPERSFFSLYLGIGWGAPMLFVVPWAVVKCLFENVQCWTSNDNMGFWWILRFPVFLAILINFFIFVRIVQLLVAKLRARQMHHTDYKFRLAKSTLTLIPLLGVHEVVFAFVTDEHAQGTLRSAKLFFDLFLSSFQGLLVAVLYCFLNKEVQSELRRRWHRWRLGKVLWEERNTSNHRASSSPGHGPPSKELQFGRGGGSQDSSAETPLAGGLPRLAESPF

Row | Binder | Relative cAMP EC50 [nM] | cAMP Rel EC50 (in the presence of 1% HSA) [nM] | cAMP Rel EC50, nM (in the presence of 1% HSA) [nM]
34 | Y[Aib]QGTFTSDFSK[αMeL]LDKK([AEEA-γGlu-C20 diacid])AQQAFIEYLLA[Aib]GPSSGEPPPSEG-NH2 [Example 19] | 2.35 | 1010 | 
35 | B1 | 8.51 |  | 1110
36 | B2 | 8.16 |  | 1220
37 | B3 | 8.33 | 2040 | 
38 | B4 | 12.5 | 1700 | 
39 | B5 | 11.1 | 1980 | 
40 | B6 | 5.42 | 532 | 
41 | B7 | 6.91 |  | 867
42 | B8 | 12.4 | 1510 | 
43 | B9 | 9.66 | 1390 | 
44 | B10 | 7.19 | 1670 | 
